Assay results as given in patent publication US20240092930A1 (MABWELL SHANGHAI BIOSCIENCE, published 2024).
Numbering of substitutions follows the chain as printed. Read-outs that look alike come from different tables or passages of the source. One block for each binder: values may come before it.

Experiments:
[1] = target: T1, recombinant human Trop-2-his protein (ACCESSION NO.: NP_002344.2, AA 1-274) (human, UniProt P09758 27-274); test: BLI, antibody on AHC sensor, Trop-2-his 60 nM
T1 construct: range 27-274; also called recombinant human Trop-2 protein; recombinant human Trop-2 extracellular domain; not shown: his tag
T1 sequence (looked up): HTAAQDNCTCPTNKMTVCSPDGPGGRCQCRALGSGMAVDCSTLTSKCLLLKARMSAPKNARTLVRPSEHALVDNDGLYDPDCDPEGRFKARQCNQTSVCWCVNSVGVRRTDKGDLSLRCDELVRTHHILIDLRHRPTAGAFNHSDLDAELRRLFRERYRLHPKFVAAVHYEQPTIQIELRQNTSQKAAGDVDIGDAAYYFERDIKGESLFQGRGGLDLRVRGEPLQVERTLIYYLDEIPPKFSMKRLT
Protocol: (§1) 5-6 days after cell transfection, culture supernatants were purified through ProA affinity chromatography column to obtain different humanized antibodies. Affinities of the obtained antibodies were determined by an assay including capturing Fc fragments of the antibodies with anti-human IgG Fc capture (AHC) biosensors using Octet QKe system instrument from Fortebio. For the assay, each of the humanized antibodies and control antibody Sacituzumab was diluted to 4 μg/ml in PBS, and was allowed to flow through the surface of an AHC biosensor (Cat.: 18-0015, PALL) for 120 s. Recombinant human Trop-2-his protein (ACCESSION NO.: NP_002344.2, AA 1-274) was used as a mobile phase, and its concentration was 60 nM. The binding time was 100 s and the dissociation time was 300 s. When the assay was finished, data from which the response values of blank control had been deducted were fitted to a 1:1 Langmuir binding model using software, and then kinetic constants for antigen-antibody binding were calculated.
Affinities of the antibodies obtained from the combinations of mutants of murine antibody 11-4, chimeric antibody ch11-4 and control antibody Sacituzumab to recombinant human Trop-2-his protein were determined by ForteBio (Table 11).

[2] = target: T1, recombinant human Trop-2-his protein …; test: BLI, antibody on AHC sensor, Trop-2-his 60 nM; remark: listed apart in the source
Protocol: as §1
Affinities of the antibodies obtained from the combinations of mutants of murine antibody 23-12, chimeric antibody ch4-3 and control antibody Sacituzumab to recombinant human Trop-2-his protein were determined by ForteBio (Table 8).

[3] = target: T2, human Trop-2 on the surface of cells (CHO/Trop-2 cells; BxPC-3 cells; NCI-N87 cells) (human, UniProt P09758 27-323); test: FACS, CHO/Trop-2 cells
T2 construct: whole, on cells; One molecule for all cell lines; the cell line is named under assay or readout; also called Trop-2 on the surface of CHO cells; recombinant human Trop-2 protein on the surface of CHO cells
T2 sequence (looked up): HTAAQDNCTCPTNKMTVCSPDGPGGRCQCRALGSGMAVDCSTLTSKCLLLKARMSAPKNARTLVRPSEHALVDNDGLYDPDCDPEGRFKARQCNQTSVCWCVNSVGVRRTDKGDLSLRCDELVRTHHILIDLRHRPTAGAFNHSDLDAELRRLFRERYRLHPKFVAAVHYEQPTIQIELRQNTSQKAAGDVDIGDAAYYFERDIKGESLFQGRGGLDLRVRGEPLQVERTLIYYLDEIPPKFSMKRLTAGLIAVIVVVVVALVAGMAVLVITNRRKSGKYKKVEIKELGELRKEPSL
Protocol: Suspensions of CHO cells recombinantly expressing human Trop-2 (CHO/Trop-2 cells) were incubated with chimeric antibodies ch3-11, ch4-3, ch17-1, ch11-4, and ch23-12 (dilutions at concentrations of 30 μg/ml and 10 μg/ml, and serial dilutions of 9 concentrations obtained through 3-fold serially diluting a solution with an initial concentration of 5 μg/ml, 11 concentrations in total) for 30 min at 37° C. Controls as follows were set: (1) Positive Control (PC): control antibody Sacituzumab; (2) Negative Control (NC): IgG1 isotype control antibody NC-IgG1. The cells were washed 3 times with PBS, and 1:100 dilution of goat anti-human IgG-FITC (Cat.: F9512, Sigma) was added into the cell which then were incubated for 30 min. Then the cells were washed 3 times with PBS again, and the Mean Fluorescence Intensity (MFI) of the cells was measured by a flow cytometer (model B49007AD, SNAW31211, BECKMAN COULTER) to detect binding ability of the chimeric antibodies to human Trop-2 on the surface of CHO cells.

[4] = target: T1, recombinant human Trop-2-his protein …; test: ELISA, coated Trop-2-his 0.2 µg/ml
Protocol: Plates were coated with recombinant human Trop-2-his protein (ACCESSION NO.: NP_002344.2, AA 1-274) at a concentration of 0.2 μg/ml overnight at 4° C. and then blocked with 5% BSA for 60 min in a constant temperature incubator at 37° C. Chimeric antibodies ch3-11, ch4-3, ch17-1, ch11-4, and ch23-12 and control antibody Sacituzumab (serial dilutions of 8 concentrations in total obtained through 3-fold serially diluting a solution with an initial concentration of 2 μg/ml) were added into the plates which were then incubated in a constant temperature incubator at 37° C. for 60 min. The plates were washed with PBST 4 times, and 1:5000 dilution of HRP-anti-human Fc (Cat.: 109-035-098, Jackson ImmunoResearch) was added into the plates for reaction for 45 min. TMB (Cat.: ME142, GalaxyBio, Beijing) substrate was added for color development for 15 min, and then 2M HCl was added to stop reaction. Absorbances at 450 nm and at 630 nm (as reference wavelength) were read, and A450 nm-630 nm values of the wells in the plates were recorded.

- Kd [1]: 2.16 nM
B1: h11-4-1 (antibody, human IgG1, kappa, V domains shown)
VH: QVQLVQSGAEVKKPGASVKVSCKASGYTFTSYWINWVRQAPGQGLEWMGNIYPSNSYTNYNQKFKDRVTMTRDTSTSTVYMELSSLRSEDTAVYYCARYRSDGFAYWGQGTLVTVSS
VL: EIVLTQSPATLSLSPGERATLSCRASQNIGTSIHWYQQKPGQAPRLLIYFASESISGIPARFSGSGSGTDFTLTISSLEPEDFAVYYCQQSNSWPFTFGGGTKVEIKR
notes: also called CDR grafted antibody 11-4

- Kd [1]: 0.394 nM
B2: h11-4-18 (antibody, human IgG1, kappa, name in Kabat numbering, V domains shown)
VH: B1 VH with Q1E, A97S, R98S, D102E
VL: B1 VL with H34A, Y49E

- Kd [1]: 1.08 nM
B3: h11-4-5 (antibody, human IgG1, kappa, name in Kabat numbering, V domains shown)
VH: B1 VH
VL: B1 VL with Y49E

- Kd [1]: 0.375 nM
B4: h11-4-11 (antibody, human IgG1, kappa, name in Kabat numbering, V domains shown)
VH: B1 VH with Q1E, A97S, R98S, D102G
VL: B1 VL with H34E, Y49E

- Kd [1]: 0.811 nM
B5: h11-4-4 (antibody, human IgG1, kappa, V domains shown)
VH: B1 VH with Q1E, A97S, R98S
VL: B1 VL

- Kd [1]: 0.351 nM
B6: h11-4-10 (antibody, human IgG1, kappa, name in Kabat numbering, V domains shown)
VH: B1 VH with Q1E, A97S, R98S, D102E
VL: B1 VL with H34E, Y49E

- Kd [1]: 0.389 nM
B7: h11-4-15 (antibody, human IgG1, kappa, name in Kabat numbering, V domains shown)
VH: B1 VH with Q1E, A97S, R98S, D102G
VL: B1 VL with H34S, Y49E

- Kd [1]: 0.254 nM
B8: h11-4-19 (antibody, human IgG1, kappa, name in Kabat numbering, V domains shown)
VH: B1 VH with Q1E, A97S, R98S, D102G
VL: B1 VL with H34A, Y49E

- Kd [1]: 0.868 nM
B9: h11-4-3 (antibody, human IgG1, kappa, V domains shown)
VH: B1 VH with R98S
VL: B1 VL

- Kd [1]: 0.352 nM
B10: h11-4-14 (antibody, human IgG1, kappa, name in Kabat numbering, V domains shown)
VH: B1 VH with Q1E, A97S, R98S, D102E
VL: B1 VL with H34S, Y49E

- Kd [1]: 0.301 nM
B11: h11-4-9 (antibody, human IgG1, kappa, name in Kabat numbering, V domains shown)
VH: B1 VH with Q1E, A97S, R98S
VL: B1 VL with H34E, Y49E

- Kd [1]: 0.222 nM
B12: h11-4-8 (antibody, human IgG1, kappa, name in Kabat numbering, V domains shown)
VH: B1 VH with Q1E, A97S, R98S
VL: B1 VL with Y49E

- Kd [1]: 0.231 nM
B13: h11-4-16 (antibody, human IgG1, kappa, name in Kabat numbering, V domains shown)
VH: B1 VH with Q1E, A97S, R98S, G103A
VL: B1 VL with H34S, Y49E

- Kd [1]: 0.21 nM
B14: h11-4-20 (antibody, human IgG1, kappa, name in Kabat numbering, V domains shown)
VH: B1 VH with Q1E, A97S, R98S, G103A
VL: B1 VL with H34A, Y49E

- Kd [1]: 0.238 nM
B15: h11-4-17 (antibody, human IgG1, kappa, name in Kabat numbering, V domains shown)
VH: B1 VH with Q1E, A97S, R98S
VL: B1 VL with H34A, Y49E

- Kd [1]: 0.211 nM
B16: h11-4-13 (antibody, human IgG1, kappa, name in Kabat numbering, V domains shown)
VH: B1 VH with Q1E, A97S, R98S
VL: B1 VL with H34S, Y49E

- Kd [1]: 0.803 nM
B17: h11-4-7 (antibody, human IgG1, kappa, name in Kabat numbering, V domains shown)
VH: B1 VH with R98S
VL: B1 VL with Y49E

- Kd [1]: 0.952 nM
B18: h11-4-6 (antibody, human IgG1, kappa, name in Kabat numbering, V domains shown)
VH: B1 VH with A97S
VL: B1 VL with Y49E

- Kd [1]: 0.282 nM
B19: h11-4-12 (antibody, human IgG1, kappa, name in Kabat numbering, V domains shown)
VH: B1 VH with Q1E, A97S, R98S, G103A
VL: B1 VL with H34E, Y49E

- Kd [1]: 0.991 nM
B20: h11-4-2 (antibody, human IgG1, kappa, V domains shown)
VH: B1 VH with A97S
VL: B1 VL

- Kd [2]: 1.53 nM
B21: h4-3-16 (antibody, human IgG1, kappa, V domains shown)
VH: EVQLVQSGPEVKKPGASVKVSCKASGFTFTDYVIGWVRQAPGQGLEWIGEIYLGSGTIYYTEKFKGRVTMTADTSTSTAYMELSSLRSEDTAVYYCARGSIFYFDYWGQGTLVTVSS
VL: DIQLTQSPSSLSASVGDRVTITCSASSSVSYMYWYQQKPGKAPKLLIYDTSTLQSGVPSRFSGSGSGTDFTLTISSLQPEDFATYYCQQWSSYPYTFGQGTKLEIKR

- Kd [2]: 0.671 nM
B22: h4-3-18 (antibody, human IgG1, kappa, V domains shown)
VH: B21 VH with T61A, Y103P
VL: B21 VL with Q54A, S91N

- Kd [2]: 0.892 nM
B23: h4-3-20 (antibody, human IgG1, kappa, V domains shown)
VH: B21 VH
VL: B21 VL with Q54A, S91N

- Kd [2]: 0.542 nM
B24: h4-3-17 (antibody, human IgG1, kappa, V domains shown)
VH: B21 VH with Y103P
VL: B21 VL with Q54A, S91N

- Kd [2]: 0.599 nM
B25: h4-3-19 (antibody, human IgG1, kappa, V domains shown)
VH: B21 VH with E62Q, Y103P
VL: B21 VL with Q54A, S91N

- EC50 [3]: 2.92 nM
- EC50 [4]: 0.328 nM
B26: chimeric antibody ch17-1 (antibody, human IgG1, V domains shown)
VH: EVKLVESGGVLVKPGGSLKLSCAASGFTFSDSAMSWVRQTPEKRLEWVASISRGDDTYYPDSVKGRITISRDFARNILYLQMTSLRSEDTAMYYCTRDRFGFAYWGQGTLVTVSA
VL: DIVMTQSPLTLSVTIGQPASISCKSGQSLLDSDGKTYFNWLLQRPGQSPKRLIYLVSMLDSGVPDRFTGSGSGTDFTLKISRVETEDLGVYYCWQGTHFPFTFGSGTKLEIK
